The source of these data is article PMC9942873 (Immunity, 2023).

B1: RUPA-74 (antibody, V domains shown)
VH: QVQLVQSGAEVKKPGASVKVSCKASGYNFLYHDINWVRQAPGQGLEWMGWMNPNTGNRGYAQQFQDRVSLTRDMSQGTAYMELRNLRSDDTAVYYCARGVGSLYGSGGWIDPWGQGTLVTVSS
VL: QSVLTQPPSASETPGQRVTISCSGSSSNIGSNTVNWYQQVPGTAPKLLMYNDNHRPSGVSDRFSGSKSGTSASLAISGLQSADEADYYCETWDDSLKRRVFGGGTKLTVL
notes: human IgG1; source: recombinant human IgG1, 293T (Protein A purified) or GenScript
B2: RUPA-86 (antibody, V domains shown)
VH: QVQLVQSGAEVKKPGASVKVSCKSSGFRFTGYYIHWVRQAPGQGLEWMGCINPNNGGTNYAQKFQGRVTMTRDTSITTAYMDLSRLKSDDTAVYYCARLVAYDQGLDVWGQGTTVTVSS
VL: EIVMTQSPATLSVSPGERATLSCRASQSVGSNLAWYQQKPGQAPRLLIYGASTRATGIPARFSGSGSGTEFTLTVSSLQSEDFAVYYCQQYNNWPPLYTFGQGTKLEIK
notes: as for B1
B3: RUPA-63 (antibody, V domains shown)
VH: QVQLVQSGAEVKKTGASVKVSCKASGYTFTSHDIIWVRQAAGQGLEWMGWMNPNTGKKGYAQRFQGRITLTRNMSTGTAYMELGSLRSDDSAIYYCARGVGTYYGSEGWLDPWGQGTLVTVSS
VL: QSVLTQPPSASETPGQRVTISCSGSSSNVGSNTVNWYQQLPGTAPKLLMYNTNQRPSGVPDRFSGSKSGTSASLAISGLRSEDEADYYCAAWDDSLKRGVFGGGTRLTVL
notes: as for B1
B4: RUPA-84 (antibody, V domains shown)
VH: B3 VH with R63K, I68V, G84N, I93V
VL: B3 VL with T33S, A91T, R106K
notes: as for B1
B5: RUPA-35 (antibody, V domains shown)
VH: QVQLVQSGAEVKKPGASVKVSCKASGYTFTSHDIIWVRQAPGQGLEWMGWMNPNIGDTGYAQKFQGRLSMTRKMSISTAYMELSSLRSEDTAVYYCSRGVGTYHGSGGWFDPWGQGTLVTVSS
VL: B1 VL with S26T, N35S, V40Y, N51S, H54Q, S60P, A82E, D86E, E90A, R99G
notes: as for B1
B6: RUPA-65 (antibody, V domains shown)
VH: QVQLVQSGAEVKKPGASVKVSCKASGYTFLYHDIIWMRQATGQGPEWMGWINPNTGNTGHAQKFQGRVTLTRNMSSGTAYMELRSLRSEDTAVYYCARGVGTYHGSGGWFDPWGQGTLVTVSS
VL: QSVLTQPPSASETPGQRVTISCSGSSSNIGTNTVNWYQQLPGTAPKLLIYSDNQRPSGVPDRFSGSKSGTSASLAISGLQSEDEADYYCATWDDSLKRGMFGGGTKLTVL
notes: as for B1
B7: RUPA-83 (antibody, V domains shown)
VH: QVQLVQSGAEVKKPGASVKVSCKASGYIFTDYGITWVRQAPGQGLEWLGWISGYSYNTNYALKFQGRVTMTTDTSTSVTYMELRNLRSDDTAVYYCARDSRSSQLLQKFDLWGQGTLVTVSS
VL: DIQLTQSPSSLSASVGDRVTITCRASQTTRNFLNWYQQKPGKAPELLIYAASTLQSGVPSRFSGSGSGTDFTLTIKNLQPEDFASYYCQQSFSSPTFGQGTKVEIK
notes: as for B1
B8: RUPA-81 (antibody, V domains shown)
VH: EVQLVATGGGLIQPGGSLRLSCTASGFNVSRMYMSWVRQAPGKGLEWVSVIYSDSSGGSTYYTDSLKGRFIISRDNSQNTLYLQMNSLRVDDTAIYYCARDVRGWGYLDFWGQGTLVTVSS
VL: EIVLTQSPGTLSLSPGERAALSCRASQGVSSSFFAWYQQKPGQAPRLLIYGASSRATGIPDRFSGSGSGTDFTLTISRLEPEDFATYYCQQYGYSPWTFGQGTKVEIK
notes: as for B1
B9: RUPA-68 (antibody, V domains shown)
VH: QVQLVQSGAELKKPGASVKVSCKASGYTFTSHDITWVRQAAGQGLEWMGWMNPNTGDKGYAQKFQGRVTMTRNMSTRTAYMEVNSLTSEDTAVYYCARGVGTYHGAGGWFDPWGQGTLVTVSS
VL: QSVVTQPPSVSETPGQRVTISCSGSSSNIGSNIVSWYQQLPGTAPKLLIYSDNQRPSGVPDRFSASKSGTSASLAISGLQSEDEADYYCATWDDSLKRGVFGGGTKLTVL
notes: as for B1
B10: RUPA-143 (antibody, V domains shown)
VH: QVQLVQSGAEVKKPGASVKVSCKASASTIANFAVSWVRQAPGQGLEWMGWISVYNVKTGDVKYAPKFQGRVTLTIDTATSTASMELRSLRFDDTAVYYCARANWYDNVWQEYFYGMDVWGQGTTVTVSS
VL: DIQMTQSPLTLSASVGDRVTITCRASQSVSRFLAWYQQKPGKAPKLLMYKVSNLESGVPSRFSGSGFGTQFTLTISSLQPDDFATYYCQHYDAYPWTFGQGTKVEIK
notes: as for B1
B11: RUPA-149 (antibody, V domains shown)
VH: EVQLVESGGGVVQPGGSLRLSCAASGFTFSNFGMHWVRQAPGKGLEWVAKISYDGSNKYYADFVKGRFTISRDKATNTVHLQMNSLSAEDRGIYYCAKDKVFGVVANHHQYGLDVWGQGTTVTVSS
VL: DIQMTQSPASLSASVGDRVTITCRASQNIHLYLHWYQQKPGKAPELLIFTTNTLHRGVPSRFRGSGSGTEFALTISDLQPEDFATYYCQQSYTTPHFTFGQGTKLEIK
notes: as for B1
B12: RUPA-151 (antibody, V domains shown)
VH: B3 VH with M51L, A61V, Q62E, R63K, I68V, T69M, G84S, Y104H
VL: B3 VL with R17G, T33A, T43R, E82A, R106K
notes: as for B1
B13: RUPA-144 (antibody, V domains shown)
VH: B3 VH with A61V, R63K, I68V, T69M, G84S, I93V
VL: B3 VL with E82D, A91T, R106K
notes: as for B1
B14: RUPA-161 (antibody, V domains shown)
VH: B6 VH with H60L, T69S, T91R, V93I
VL: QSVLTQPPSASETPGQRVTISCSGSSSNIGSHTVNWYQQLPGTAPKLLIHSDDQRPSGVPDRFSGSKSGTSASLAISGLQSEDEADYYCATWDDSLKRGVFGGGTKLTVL
notes: as for B1
B15: RUPA-147 (antibody, V domains shown)
VH: QVQLVQSGAEVKKPGASVKVSCTASGYNFLTHDISWVRQATGQGLEWMGWMNPNTGKKGYVQKFQGRVTMDRDMSKSTAYMELRSLTSEDTAVYYCVRGVGSYYGSGGWFDPWGQGTLVTVSS
VL: QSVLTQPPSASETPGQKVTISCSGSSSNIGSDTVSWYVQLPGTAPKLLIYNDNQRPSRVPDRFSGSKSGTSASLAISGLQSEDEADYYCATWDASLKRRVFGGGTTLTVL
notes: as for B1
B16: RUPA-148 (antibody, V domains shown)
VH: B15 VH
VL: B15 VL with S57P, R58G
notes: as for B1
B17: RUPA-150 (antibody, V domains shown)
VH: QVQLQQWGAGLLKPSETLSLTCLVNGGSFSDYYWSWIRQPPGRGLEWIGDVNHSGTTNHRPSLQSRVTLSLDMSKNQFSLKLTSVTAADTAVYFCARRSSGYYRGSRYTGWFDPWGQGTLVTVSS
VL: EIVMTQSPATLSVSPGERATLSCRASQSVSSNLAWYQQKPGQTPRLLIYGSSTRATGIPARFSGSGSGTEFALTISSLQSEDFAVYYCQQYNNWPPPWTFGQGTKVEIK
notes: as for B1
B18: RUPA-153 (antibody, V domains shown)
VH: QVQLQESGPGLVKPSQTLSLTCTVSGSSVSSGGYYWSWIRQHPGKGLEWIGYLYYSGNTGNTFYNPSLKSRVTISADPSKNQFSLELSSVTAADTAMYYCARAVGVGRYFGYFPSWGLGTLVTVSS
VL: B17 VL
notes: as for B1

Numbering of substitutions follows the chain as printed.

T1 sequence (Q8I6T1 28-428): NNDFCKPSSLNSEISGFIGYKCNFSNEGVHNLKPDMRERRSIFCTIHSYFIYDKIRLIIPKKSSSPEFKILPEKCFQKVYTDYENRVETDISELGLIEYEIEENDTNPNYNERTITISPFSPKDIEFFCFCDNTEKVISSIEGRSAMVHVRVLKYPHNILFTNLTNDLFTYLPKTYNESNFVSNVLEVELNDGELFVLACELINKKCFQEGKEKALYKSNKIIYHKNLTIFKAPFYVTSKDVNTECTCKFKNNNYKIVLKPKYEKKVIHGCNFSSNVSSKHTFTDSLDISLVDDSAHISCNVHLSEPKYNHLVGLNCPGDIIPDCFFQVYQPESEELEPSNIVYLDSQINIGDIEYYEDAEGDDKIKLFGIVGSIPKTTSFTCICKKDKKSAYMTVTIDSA

One experiment has as its target T1, recombinant full-length Pfs48/45 (Plasmodium falciparum 3D7, UniProt Q8I6T1). Briefly: ELISA. The settings on record: both partners purified. A general note: In an ELISA, binding on a coated surface is turned into a signal by an enzyme label.
On to B1, for which the binding result is “binds”.
On the same count and under the same terms, under B2 stands “binds”; under B3, “binds”.
Same read-out and setting: the value for B4 was “binds”; that for B5 was “binds”.
Still for that read-out and setting: the value for B6 was “binds”; that for B7 was “binds”; that for B8 was “binds”.
Regarding B9, the binding result is reported as “binds”.

In the next experiment the target is T2, Pfs48/45 D2-3 (Plasmodium falciparum 3D7, UniProt Q8I6T1). Briefly: ELISA. The settings on record: both partners purified.
T2 sequence (Q8I6T1 184-428): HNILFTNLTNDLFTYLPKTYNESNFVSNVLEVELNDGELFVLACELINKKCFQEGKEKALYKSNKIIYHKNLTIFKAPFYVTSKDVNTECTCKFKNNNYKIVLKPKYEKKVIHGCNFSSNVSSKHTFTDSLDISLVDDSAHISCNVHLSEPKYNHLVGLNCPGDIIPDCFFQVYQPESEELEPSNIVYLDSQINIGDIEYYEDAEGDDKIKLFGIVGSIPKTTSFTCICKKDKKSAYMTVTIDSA
As to B1, the binding result is reported as “binds”.
For B2, the binding result was “binds”.
Still for that read-out and setting: under B3 stands “binds”.
In the case of B4, the binding result is “binds”.
Same read-out and setting: under B5 stands “binds”; under B6, “binds”; under B7, “binds”.
The same measure, in the same setting: the value for B8 was “binds”; that for B9 was “binds”.

In another experiment the target is T3, Pfs48/45 D1-2 (Plasmodium falciparum 3D7, UniProt Q8I6T1). Briefly: ELISA. The settings on record: both partners purified.
T3 sequence (Q8I6T1 28-289): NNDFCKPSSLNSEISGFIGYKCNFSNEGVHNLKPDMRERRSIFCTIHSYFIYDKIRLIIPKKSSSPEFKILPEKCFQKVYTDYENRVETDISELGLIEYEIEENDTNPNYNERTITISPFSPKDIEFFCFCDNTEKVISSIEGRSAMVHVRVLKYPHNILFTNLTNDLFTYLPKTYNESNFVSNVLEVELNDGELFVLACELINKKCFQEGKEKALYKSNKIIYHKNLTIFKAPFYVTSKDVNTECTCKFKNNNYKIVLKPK
B1: the binding result is listed as “binds”.
As to B2, the binding result was “binds”.
As to B3, the binding result is given as “binds”.
Still for that read-out and setting: the value for B4 was “binds”.
Still for that read-out and setting: the value for B5 was “binds”; that for B6 was “binds”.
On the same count and under the same terms, under B7 stands “binds”; under B8, “binds”; under B9, “binds”.

For a further experiment, the target named is T1, recombinant full-length Pfs48/45. Briefly: ELISA. To be noted: both partners purified. This is another data set of the same source.
B10: the binding result was “binds”.
On the same count and under the same terms, under B11 stands “binds”.
The same measure, in the same setting: the value for B12 was “binds”; that for B13 was “binds”; that for B14 was “binds”.
For B15, the binding result was “binds”.
On the same count and under the same terms, the value for B16 was “binds”.
On the same count and under the same terms, under B17 stands “binds”; under B18, “binds”.

For another experiment, the target named is T2, Pfs48/45 D2-3. Briefly: ELISA. The settings on record: both partners purified. The source holds these as a separate data set.
On to B10, for which the binding result was “binds”.
On the same count and under the same terms, the value for B11 was “binds”; that for B12 was “binds”.
Take B13: the binding result is on record as “binds”.
On to B14, for which the binding result is “binds”.
Consider B15, for which the binding result was “binds”.
Same read-out and setting: under B16 stands “binds”; under B17, “binds”; under B18, “binds”.

The next experiment concerns the target T3, Pfs48/45 D1-2. Briefly: ELISA. To be noted: both partners purified. The source holds these as a separate data set.
B10: the binding result is reported as “binds”.
The same measure, in the same setting: under B11 stands “binds”; under B12, “binds”; under B13, “binds”.
On the same count and under the same terms, the value for B14 was “binds”; that for B15 was “binds”; that for B16 was “binds”.
On the same count and under the same terms, under B17 stands “binds”; under B18, “binds”.
